Laboratory results from the DeepSol protein solubility set.

Assay: soluble on expression in E. coli; label from the status in PepcDB or PDB records

Sequence | soluble on expression in E. coli
MKSTFSVLFFVKKDKQKINGSYPIFVRITIDGVASRFNSKLDVQPKLWDGKAGKAAGRSAEATRINRLLDDINASLNTIYHELQRRDNYVTAEKVKNEFLGHSENHDTILNLFQKHNDDVKQLVGISKTIATYRKYEVTRRHLAEFIQSKYNLSDISIKEITPMFITDFELYLRTTCKCGYNTTAKFMQFFKRIILIARNNGILIGDPFANYKIRLEKVDRGYLTEDEIKIILKKKMVSERLEQVRDVFIFSCFSGLAYVDVANLKEDNIRKSFDGNLWIITKRQKTNTDVNVPLLDIPKMILEKYKGKLPNGKVLPIISNQK | not soluble
MKSVFVESTIFEKYRDEYLSDEEYRLFQAELMLNPKLGDVIQGTGGLRKIRVASKGKGKRGGSRIIYYFLDEKRRFYLLTIYGKNEMSDLNANQRKQLMAFMEAWRNEQS | not soluble
MKTAEAAKGRWPEILEHFDLPPITGKNHYRGECPVCGARGKFRIDDRDGAGTWICVCGSGDGMKLVTLTQGKPFNEICTEIDRLIGNDYQRVKIPVNSSATSLRKRVLSKFSKLEALRGTSGAAYLNSRGIFNLPAEAIRFNARQRHNGCVFQSLYSLATDDKGELCYLHQTLLDGAKKADIGSSSKRLKSLQEDNYLDHARSVAIRMFPVASTLGIAEGIETALSAHQIYKVNTWATINSGFMKKFRVPAGVLHLIIFADRDENSATGLAAAYECAHANLMAKNDLQRVSVYWPDHGDFNNMLMNGDQVRELVFHKKKVAA | not soluble
MKTEEMKFINESEFKKLKHYFEQKNTTSSLVLLVALTTGGRFSEIAKLKREDLDIKNNKIHLRGTKTETSDRIISIDTVTMKRIQSFIDSRPTNISGYIFTVDGKTITNAAVNKVLRKACANLNIKEITIHSLRHSFCSILIHHGFSILYISKHLGHSNPATTQSIYSHLLQETYEREDELEHHHHHH | not soluble
MKTGDKAGAIAAAQYFVEVIEYSMHTSTTDLLEKYSYEHCDRCSHYIEVINTRQEKNVLPKSVVINSSQEGHPEFRGEGAIIWRVPMHLQISEQWEAGKEPRKEEVKVSFSVAIDNGHWVLVGVGEED | not soluble
MKTGDKQFAVIGLGRFGLAVCKELQDSGSQVLAVDINEDRVKEAAGFVSQAIVANCTHEETVAELKLDDYDMVMIAIGADVNASILATLIAKEAGVKSVWVKANDRFQARVLQKIGADHIIMPERDMGIRVARKMLDKRVLEFHPLGSGLAMTEFVVGSRLMGKTLSDLALCKVEGVQVLGFKRGPEIIKAPDMSTTLEIGDLIIVVGPQDKLANKLKSLLEHHHHHH | not soluble
MKTICVFAGSNPGGNEAYKRKAAELGVYMAEQGIGLVYGGSRVGLMGTIADAIMENGGTAIGVMPSGLFSGEVVHQNLTELIEVNGMHERKAKMSELADGFISMPGGFGTYEELFEVLCWAQIGIHQKPIGLYNVNGYFEPMMKMVKYSIQEGFSNESHLKLIHSSSRPDELIEQMQNYSYPILEKKWTEI | soluble
MKTKTDFLKMKEQGEPITMLTAYDYPSAKLAEEAEVDMILVGDSLGMVVLGYDSTVPVTVEDMIHHTKAVRRGAKETFIVTDMPFMSYHVSLQDTMVNARRIVQESGAHALKVEGAGEVISTIHYLTNAGIPVVAHLGLTPQSVGVLGGYKVQGKDAESAKKLIEDAKKCEEAGAIALVLECVPMQLAELISEQLTIPTIGIGAGQKVDGQVLVYHDLISYGVNRVPKFVKQYTSVQEEIVRGISQYVAEVKTRQFPEEKHSFTMKEEECLALYGGKQS | not soluble
MKTLGEFIVEKQHEFSHATGELTALLSAIKLGAKIIHRDINKAGLVDILGASGAENVQGEVQQKLDLFANEKLKAALKARDIVAGIASEEEDEIVVFEGCEHAKYVVLMDPLDGSSNIDVNVSVGTIFSIYRRVTPVGTPVTEEDFLQPGNKQVAAGYVVYGSSTMLVYTTGCGVHAFTYDPSLGVFCLCQERMRFPEKGKTYSINEGNYIKFPNGVKKYIKFCQEEDKSTNRPYTSRYIGSLVADFHRNLLKGGIYLYPSTASHPDGKLRLLYECNPMAFLAEQAGGKASDGKERILDIIPETLHQRRSFFVGNDHMVEDVERFIREFPDA | soluble
MKTLHLTFIAKSSKRSHFWLELVWLNNQKKILFCGAGHCKMSPHIIATVTIDDEHHHHHHRSNENYSPSSQDMDSPKPKGRILYCRKCEGHGEKVILKNHSPQCPYILCNCKSCEKLNYKRLKSFNKRNKEKIELAAALNAKRHAPESGSSVDDEEGFSRRSSFCSKTSTPDMDSETRTSSTTPITRSNSTMPTANGLEGRSGSLGHMTVMSYDIWKAKCASERKRLEEERLTKPELFTRSPSPGPMRKRAHTFVAPPTIHTPDIPVVAAKKMSLDEKVKGKFITLPTIPAMRIFVNEEDEDVKPVTQMQLAQPIALTPSPQMSLASTLAQIPMSTPVCMPSMITPTSFLDIPSTSSPMLPFQISTTTSPMLQRQTPILTPQMSPFKPVGVATPQPPALSNLSAGQELSSFILHSVVLQAQQAQQKTAQQLIPTSMPSELESTLSLLRLQQSSLGDLIKLSGIQLPTLPTTQPMLTPQMPTLPMMQKALPTVLPGSFQPFLQPTLFTNPV | not soluble
MKTRDRILECSLLLFNEQGEPNVSTLEIANELGISPGNLYYHFHGKEPLVMALFERFQAELAPLLDPPEEVRLGAEDYWLFLHLIVERLAHYRFLFQDLSNLTGRLPRLARGIRTWLGALKRTLATLLARLKADRQLRSDAPALGQLVEQITLTLLFSLDYQRVLGSKGEVRTVVYQIMMLVAPHLRSEAQRSAESLAQRYLGPE | not soluble
MKTSETTRPTLSSLPVGKRAEEGTPHNLFTVIGLDDSPSPYLSPSVKALIDQGCVFSGGVRHHDIVAPLLPAGAKWIDITVPLDQVFARYAGHPHIIVFASGDPIFFGFANTIRRRLPDAEIRLYPSFNSLQTLAHRLVMPYDDMRTISLTGRPWHGFDRALIERTPKMGILTDREHTPATIASRMLDYGYNDYTMYIGEHLGHPTKELIRRMTLEEAAAETFEYPNCLILTTGDGLQSVNGGILSPRFFGIPDEAFELLDGRARMITKAPIRLLTLSALELNRRTSFWDIGFCTGSVSIEARLQFPHLHVTSFEIRPEGKRLMEINSRRFGTPGITTVIGDFLETDTAIYPCPDAVFIGGHGGRLKEIISRVRHKLLPGARIVFNSVSEESKTHFIEAANESGLCFLGGTRVAINEYNPIEILVASAPDSPYL | not soluble
MKTSPRRPLILKRRRLPLPVQNAPSETSEEEPKRSPAQQESNQAEASKEVAESNSCKFPAGIKIINHPTMPNTQVVAIPNNANIHSIITALTAKGKESGSSGPNKFILISCGGAPTQPPGLRPQTQTSYDAKRTEVTLETLGPKPAARDVNLPRPPGALCEQKRETCADGEAAGCTINNSLSNIQWLRKMSSDGLGSRSIKQEMEEKENCHLEQRQVKVEEPSRPSASWQNSVSERPPYSYMAMIQFAINSTERKRMTLKDIYTWIEDHFPYFKHIAKPGWKNSIRHNLSLHDMFVRETSANGKVSFWTIHPSANRYLTLDQVFKQQKRPNPELRRNMTIKTELPLGARRKMKPLLPRVSSYLVPIQFPVNQSLVLQPSVKVPLPLAASLMSSELARHSKRVRIAPKVLLAEEGIAPLSSAGPGKEEKLLFGEGFSPLLPVQTIKEEEIQPGEEMPHLARPIKVESPPLEEWPSPAPSFKEESSHSWEDSSQSPTPRPKKSYSGLRSPTRCVSEMLVIQHRERRERSRSRRKQHLLPPCVDEPELLFSEGPSTSRWAAELPFPADSSDPASQLSYSQEVGGPFKTPIKETLPISSTPSKSVLPRTPESWRLTPPAKVGGLDFSPVQTPQGASDPLPDPLGLMDLSTTPLQSAPPLESPQRLLSSEPLDLISVPFGNSSPSDIDVPKPGSPEPQVSGLAANRSLTEGLVLDTMNDSLSKILLDISFPGLDEDPLGPDNINWSQFIPELQ | soluble
MKTTLIKVIAASVTALFLSMQVYASGHTAHVDEAVKHAEEAVAHGKEGHTDQLLEHAKESLTHAKAASEAGGNTHVGHGIKHLEDAIKHGEEGHVGVATKHAQEAIEHLRASEHKSH | not soluble
MKTTPIPLRRDIILDGKWCAAMLKELESLYEGDIVINGQPEHPEDYEWFYTADGDEIGIAKHRLTEQERRLLALFFTPAERRREPESEEERAWKRWMATGDPAALARLAAPYCRFIHFTASRPIANKEEFADAVRGLFSSPVAIVWEQDRRGLIVEAKQKRTTEPPSLADMAEALAADFYTALHLLIGPIRSVDERLYESFLLEKECFSAARRFWPKRTVYEWEDVIPLPLFEEGAVSEKARRTLSFLDGFDEEEVRAMETFLQCNLNVSMAAKKLYMHRNSLQYRIDKWAEQTGVDIKRFKGAAAVYLAILHRRRS | not soluble
